# Assay results taken from the supplement of paper PMC9112550, “Optimization of the antimicrobial peptide Bac7 by deep mutational scanning” (BMC Biology, 2022).
# Test system: Escherichia coli TOP10
# Experiment: shrunken log2 fold change of peptide-encoding DNA abundance (4.5 h post-induction vs induction); higher = less antimicrobial activity (less host growth inhibition)
# Conditions: time post-induction: 4.5 h; library: site-saturation at positions 5, 18, 19, 20
# 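Note: peptides expressed intracellularly from a pBAD plasmid library in pooled LB shake-flask culture, induced with 0.3% L-arabinose, DNA abundance read by NGS, three biological replicates, DESeq2 with apeglm shrinkage.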
sequence,measurement,value
RRIRWRPPRLPRPRPRPTCFPRP,shrunken log2 fold change,0.0863
RRIRQRPPRLPRPRPRPQHSPRP,shrunken log2 fold change,-0.062
RRIRCRPPRLPRPRPRPKNGPRP,shrunken log2 fold change,0.0379
RRIRIRPPRLPRPRPRPILQPRP,shrunken log2 fold change,-0.146
RRIRERPPRLPRPRPRPYCDPRP,shrunken log2 fold change,-0.0156
RRIRLRPPRLPRPRPRPLMLPRP,shrunken log2 fold change,-0.257
RRIRERPPRLPRPRPRPTVGPRP,shrunken log2 fold change,-0.116
RRIRKRPPRLPRPRPRPPICPRP,shrunken log2 fold change,0.684
RRIRQRPPRLPRPRPRPIPWPRP,shrunken log2 fold change,0.0351
RRIRTRPPRLPRPRPRPISDPRP,shrunken log2 fold change,-0.0355
RRIRKRPPRLPRPRPRPMHKPRP,shrunken log2 fold change,0.351
RRIRSRPPRLPRPRPRPITKPRP,shrunken log2 fold change,-0.083
RRIRMRPPRLPRPRPRPVGVPRP,shrunken log2 fold change,0.806
RRIRFRPPRLPRPRPRPELFPRP,shrunken log2 fold change,0.15
RRIRTRPPRLPRPRPRPPPSPRP,shrunken log2 fold change,1.16
RRIRCRPPRLPRPRPRPVRVPRP,shrunken log2 fold change,0.272
RRIRNRPPRLPRPRPRPVWGPRP,shrunken log2 fold change,0.283
RRIRMRPPRLPRPRPRPYQFPRP,shrunken log2 fold change,-0.125
RRIRGRPPRLPRPRPRPNRMPRP,shrunken log2 fold change,-0.00965
RRIRARPPRLPRPRPRPWDTPRP,shrunken log2 fold change,0.0787
RRIRARPPRLPRPRPRPYRQPRP,shrunken log2 fold change,-0.0187
RRIRFRPPRLPRPRPRPTAMPRP,shrunken log2 fold change,-0.105
RRIRYRPPRLPRPRPRPQFLPRP,shrunken log2 fold change,-0.132
RRIRARPPRLPRPRPRPGTNPRP,shrunken log2 fold change,0.204
RRIRDRPPRLPRPRPRPWWIPRP,shrunken log2 fold change,-0.0075
RRIRRRPPRLPRPRPRPTGEPRP,shrunken log2 fold change,0.337
RRIRDRPPRLPRPRPRPGLWPRP,shrunken log2 fold change,1.37
RRIRNRPPRLPRPRPRPRIRPRP,shrunken log2 fold change,-0.0657
RRIRDRPPRLPRPRPRPSTGPRP,shrunken log2 fold change,-0.313
RRIRDRPPRLPRPRPRPTTVPRP,shrunken log2 fold change,0.258
RRIRHRPPRLPRPRPRPKLHPRP,shrunken log2 fold change,-0.271
RRIRQRPPRLPRPRPRPCNNPRP,shrunken log2 fold change,-0.255
RRIRTRPPRLPRPRPRPYAMPRP,shrunken log2 fold change,-0.462
RRIRERPPRLPRPRPRPLQNPRP,shrunken log2 fold change,-0.116
RRIRHRPPRLPRPRPRPKKVPRP,shrunken log2 fold change,0.00707
RRIRHRPPRLPRPRPRPENAPRP,shrunken log2 fold change,0.14
RRIRPRPPRLPRPRPRPYPIPRP,shrunken log2 fold change,-0.175
RRIRGRPPRLPRPRPRPFKAPRP,shrunken log2 fold change,0.2
RRIRARPPRLPRPRPRPMSFPRP,shrunken log2 fold change,-0.0283
RRIRWRPPRLPRPRPRPNPIPRP,shrunken log2 fold change,-0.149
RRIRSRPPRLPRPRPRPTGQPRP,shrunken log2 fold change,0.31
RRIRQRPPRLPRPRPRPFWEPRP,shrunken log2 fold change,-0.0669
RRIRKRPPRLPRPRPRPHGLPRP,shrunken log2 fold change,0.0425
RRIRRRPPRLPRPRPRPAVIPRP,shrunken log2 fold change,0.00992
RRIRNRPPRLPRPRPRPNAAPRP,shrunken log2 fold change,-0.149
RRIRYRPPRLPRPRPRPDMLPRP,shrunken log2 fold change,-0.0808
RRIRPRPPRLPRPRPRPHMHPRP,shrunken log2 fold change,-0.438
RRIRIRPPRLPRPRPRPLINPRP,shrunken log2 fold change,-0.444
RRIRDRPPRLPRPRPRPCFKPRP,shrunken log2 fold change,-0.0968
RRIRFRPPRLPRPRPRPTYYPRP,shrunken log2 fold change,-0.421
RRIRKRPPRLPRPRPRPGYMPRP,shrunken log2 fold change,-0.144
RRIRVRPPRLPRPRPRPQEMPRP,shrunken log2 fold change,0.0818
RRIRRRPPRLPRPRPRPTSMPRP,shrunken log2 fold change,0.263
RRIRLRPPRLPRPRPRPVFCPRP,shrunken log2 fold change,0.14
RRIRPRPPRLPRPRPRPAGPPRP,shrunken log2 fold change,0.314
RRIRPRPPRLPRPRPRPPYYPRP,shrunken log2 fold change,-0.492
RRIRPRPPRLPRPRPRPTHDPRP,shrunken log2 fold change,0.258
RRIRRRPPRLPRPRPRPKNAPRP,shrunken log2 fold change,0.0423
RRIRRRPPRLPRPRPRPVIDPRP,shrunken log2 fold change,-0.165
RRIRNRPPRLPRPRPRPGWKPRP,shrunken log2 fold change,-0.00965
RRIRYRPPRLPRPRPRPIQNPRP,shrunken log2 fold change,-0.219
RRIRWRPPRLPRPRPRPEHTPRP,shrunken log2 fold change,0.489
RRIRQRPPRLPRPRPRPQGMPRP,shrunken log2 fold change,0.0331
RRIRRRPPRLPRPRPRPATAPRP,shrunken log2 fold change,0.479
RRIRNRPPRLPRPRPRPEGVPRP,shrunken log2 fold change,0.205
RRIRMRPPRLPRPRPRPVNHPRP,shrunken log2 fold change,-0.327
RRIRKRPPRLPRPRPRPMGRPRP,shrunken log2 fold change,-0.0264
RRIRGRPPRLPRPRPRPDSLPRP,shrunken log2 fold change,-0.0456
RRIRIRPPRLPRPRPRPPIHPRP,shrunken log2 fold change,-0.614
RRIRCRPPRLPRPRPRPYLYPRP,shrunken log2 fold change,-1.01
RRIRKRPPRLPRPRPRPFNWPRP,shrunken log2 fold change,0.00115
RRIRWRPPRLPRPRPRPLFIPRP,shrunken log2 fold change,-0.353
RRIRLRPPRLPRPRPRPWFHPRP,shrunken log2 fold change,-0.352
RRIRYRPPRLPRPRPRPHNDPRP,shrunken log2 fold change,-0.692
RRIRGRPPRLPRPRPRPINPPRP,shrunken log2 fold change,-0.0416
RRIRPRPPRLPRPRPRPGVRPRP,shrunken log2 fold change,0.116
RRIRERPPRLPRPRPRPEDYPRP,shrunken log2 fold change,0.00235
RRIRERPPRLPRPRPRPFTMPRP,shrunken log2 fold change,-0.585
RRIRLRPPRLPRPRPRPEMIPRP,shrunken log2 fold change,0.0183
RRIRERPPRLPRPRPRPDIGPRP,shrunken log2 fold change,-0.0541
RRIRFRPPRLPRPRPRPGPPPRP,shrunken log2 fold change,0.909
RRIRQRPPRLPRPRPRPCTLPRP,shrunken log2 fold change,-0.56
RRIRARPPRLPRPRPRPCWRPRP,shrunken log2 fold change,-0.0211
RRIRCRPPRLPRPRPRPWEMPRP,shrunken log2 fold change,-0.0816
RRIRFRPPRLPRPRPRPCRYPRP,shrunken log2 fold change,-0.0124
RRIRCRPPRLPRPRPRPTVTPRP,shrunken log2 fold change,-0.208
RRIRHRPPRLPRPRPRPVEPPRP,shrunken log2 fold change,0.109
RRIRGRPPRLPRPRPRPSAHPRP,shrunken log2 fold change,1.12
RRIRWRPPRLPRPRPRPGGMPRP,shrunken log2 fold change,0.286
RRIRARPPRLPRPRPRPWNTPRP,shrunken log2 fold change,-0.427
RRIRMRPPRLPRPRPRPNTMPRP,shrunken log2 fold change,0.0324
